Experimental data published in patent US7449563B2, “Methods and compositions for destabilizing microtubules” (Academia Sinica, priority 2003, dated 2008).

B1: GST-PN2-2: GST fusion polypeptide with sub-region PN2-2 of PN2 (CPAP residues 191-310 per b157) (protein)
chain: LSLLPDDQSQKHRSPGNTTTGERATCCFPSYVYPDPTQEETYPSNILSHEQSNFCRTAHGDFVLTSKRASPNLFSEAQYQEAPVEKNNLKEENRNHPTGESILCWEKVTEQIQEANDKNL
modifications: left off: a dimerising Fc or GST
B2: GFP-PN2-3: GFP-tagged CPAP residues 311-422, expressed from a transfected vector (protein, UniProt Q9HC77 311-422, looked up, fragment)
chain: QKHDDSSEVANIEERPIKAAIGERKQTFEDYLEEQIQLEEQELKQKQLKEAEGPLPIKAKPKQPFLKRGEGLARFTNAKSKFQKGKESKLVTNQSTSEDQPLFKMDRQQLQR
modifications: GFP tag
notes: GFP-tagged CPAP residues 311-422, expressed from a transfected vector

Key:
Bovine brain α/β tubulin = biological target: T1, Bovine brain α/β tubulin (Bos taurus, UniProt P81947+Q6B856); test: In vitro microtubule sedimentation assay; assay type: biochemical; details: 15 μM tubulin; 40 μM polypeptide
T1 construct: Bovine brain α/β tubulin (15 μM; Cytoskeleton Inc., Denver, Colo.); purchased Cytoskeleton Inc., Denver, Colo; host or cells: bovine brain (tissue-purified)
T1 sequence (P81947 whole entry): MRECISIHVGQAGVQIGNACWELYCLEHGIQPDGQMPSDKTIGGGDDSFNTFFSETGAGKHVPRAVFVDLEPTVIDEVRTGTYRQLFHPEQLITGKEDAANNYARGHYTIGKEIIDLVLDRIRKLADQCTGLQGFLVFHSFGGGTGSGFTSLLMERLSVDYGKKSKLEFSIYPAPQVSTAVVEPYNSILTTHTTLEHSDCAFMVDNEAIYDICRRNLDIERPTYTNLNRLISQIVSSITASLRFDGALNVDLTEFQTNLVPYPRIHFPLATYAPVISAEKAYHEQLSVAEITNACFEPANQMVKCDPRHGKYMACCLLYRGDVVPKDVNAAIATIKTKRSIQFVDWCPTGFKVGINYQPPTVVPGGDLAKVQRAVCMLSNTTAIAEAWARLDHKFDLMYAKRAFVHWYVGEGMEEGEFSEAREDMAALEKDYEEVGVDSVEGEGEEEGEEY
T1 sequence (Q6B856 whole entry): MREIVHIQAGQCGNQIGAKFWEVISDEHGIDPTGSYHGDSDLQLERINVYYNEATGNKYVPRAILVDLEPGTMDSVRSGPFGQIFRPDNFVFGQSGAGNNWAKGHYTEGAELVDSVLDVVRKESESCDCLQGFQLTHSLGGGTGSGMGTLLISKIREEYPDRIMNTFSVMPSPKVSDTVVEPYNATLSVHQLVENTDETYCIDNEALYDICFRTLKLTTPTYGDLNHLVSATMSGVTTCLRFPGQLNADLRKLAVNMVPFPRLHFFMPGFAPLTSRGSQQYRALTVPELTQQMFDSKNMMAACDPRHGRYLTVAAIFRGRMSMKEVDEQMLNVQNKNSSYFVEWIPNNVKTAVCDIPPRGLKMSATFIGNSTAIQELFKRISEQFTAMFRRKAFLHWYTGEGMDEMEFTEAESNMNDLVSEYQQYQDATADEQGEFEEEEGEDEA
Experimental: In vitro Microtubule Sedimentation Assay
Bovine brain α/β tubulin (15 μM; Cytoskeleton Inc., Denver, Colo.) was pre-incubated with various amounts of truncated GST-CPAP proteins in a 50 μl reaction mixture comprising RG1 buffer (see Example 2) for 30 min at 37° C. Tubulin polymerization was initiated by adding 50 μl GMRG buffer (RG1 buffer supplemented with 12 mM MgCl2 and 50% glycerol), then incubating the reaction mixtures at 37° C. for 1.5 hr.
The reaction mixtures were then subjected to centrifugation at 300,000×g for 15 min at 37° C., in a TL-100 ultracentrifuge (Beckman Instruments, Fullerton, Calif.). Supernatants (S) and pellets (P) were analyzed by SDS-PAGE followed by staining with Coomassie blue.
Microtubule disassembly was confirmed using the microtubule sedimentation assay. Following centrifugation of the reaction mixtures, relatively soluble tubulin monomers and small multimers are found in the supernatant, while relatively insoluble polymerized tubulin is found in the pellet. To assay the ability of PN2-3-containing polypeptides to destabilize microtubules, reactions comprising 15 μM tubulin were incubated in the presence of increasing amounts of GST-PN2-3 (1.9, 3.8, 7.5, and 15 μM) or GST-PN2-2 (15, 30, or 40 μM), or in the absence of CPAP-derived polypeptides (control; FIG. 4A).

[1] = biological target: T2, polymerized microtubules (bovine brain tubulin) (Bos taurus, UniProt P81947+Q6B856); test: Microtubule depolymerization assay (centrosomes omitted); assay type: biochemical; details: centrosomes absent; nocodazole 15 μM as positive control; data not shown
T2 construct: containing 125 μg bovine brain tubulin (Cytoskeleton, Denver, Colo.); purchased Cytoskeleton, Denver, Colo; host or cells: bovine brain (tissue-purified)
T2 sequence (P81947 whole entry): as the sequence (P81947 whole entry) above
T2 sequence (Q6B856 whole entry): as the sequence (Q6B856 whole entry) above
Experimental: Microtubule Depolymerization Assay
In this assay, centrosomes are omitted from the above reaction mixtures to determine the effects of various truncated GST-CPAP proteins or synthetic peptides on microtubule polymerization in the absence of centrosomes. Polymerized microtubules were stained using FITC-conjugated anti-α-tubulin monoclonal antibodies, as above. Nocodazole (15 μM) was added to some reactions mixtures as a positive control for microtubule depolymerization.

HeLa cells [2] = test: Flow cytometric cell cycle analysis of transfected HeLa cells; assay type: cell-based, human; details: transiently transfected HeLa cells
Experimental: (§1) HeLa cells were maintained in DMEM supplemented with 10% fetal bovine serum. cDNA clones encoding different portions of CPAP were subcloned, in an appropriate reading frame, into the CMV promoter-driven EGFP-C1 expression vector (Clontech, Palo Alto, Calif.). Transient transfections were performed using Lipofectamine 2000 (Invitrogen, Carlsbad, Calif.) according to the manufacturer's instructions.
Transfected HeLa cells were harvested 48 hr following transfection. Both the adherent cells and non-adherent cells present in the culture supernatants were collected and subjected to centrifugation. The resulting cell pellets were resuspended in PBS then fixed in 1% formaldehyde at 4° C. for 30 min. Following fixation, the cells were collected by centrifugation, washed, and resuspended in 70% cold ethanol. The resuspended cells were either stored at −20° C. overnight or immediately used for FACS analysis.
FACS analysis was performed by collecting the fixed cells by centrifugation and resuspending the cells in DNA staining solution (100 μg/ml propidium iodide, 0.1% Triton X, and 100 μM EDTA in PBS) for 30 min at room temperature. Cell cycle analysis was performed on a FACS Calibur (Becton-Dickinson, Mountain View, Calif.) with the signal gated to measure only GFP fluorescence. Ten thousand events were acquired and the percentages of cells in G0/G1, S, and G2/M were determined using the ModfitLT software (version 2.0, Verity Software House, Inc., Topsham, Me.). The apparent accumulation of cells with two genome copies (i.e., twice the genetic material of G0/G1 cells) is indicative of cell cycle arrest after DNA synthesis but prior to mitosis.

HeLa cells [3] = test: Cell-based assay for CPAP activity: microtubule reassembly in cold-treated transfected HeLa cells; parameters: species or system human; details: transiently transfected HeLa cells
Experimental: Cell Culture and Transfection
as §1
Cold Treatment, Immunofluorescence and Confocal Microscopy
HeLa cells were grown on coverslips for at least 24 hr. Cold treatment was performed by incubating the cells at 4° C. for 1 hr, then replacing the cold medium with medium warmed to 30° C. and incubating the cells for 2 min at 30° C. The cells were then fixed with 1% formaldehyde for 30 min at room temperature.
The fixed cells were incubated in the presence of anti-α-tubulin monoclonal antibodies (N356, Amersham, Piscataway, N.J.) and anti-γ-tubulin polyclonal antibodies (Sigma, Saint Louis, Mo.). Bound anti-α-tubulin monoclonal antibodies (N356) were detected with Alexa 568, a Texas Red-conjugated goat anti-mouse IgG, or Alexa 647, a far-red fluorophore-conjugated goat anti-mouse IgG. Bound anti-γ-tubulin polyclonal antibodies were detected with Alexa 568 (Molecular Probes Inc.). The resulting […] signals were detected using a laser scanning confocal system (MRC 1000, Bio-Rad Laboratories, Hercules, Calif.).
The effect of various polypeptides derived from CPAP was determined by evaluating the amounts of mitotic spindle formation in the transfected cells. Decreased mitotic spindle formation indicated the presence of an activity that inhibited microtubule formation or destabilized microtubules.

Molecule | Distribution of tubulin in the supernatant and pellet (in words) (Bovine brain α/β tubulin) | Disassembly of polymerized microtubules in the absence of centrosomes (in words) [1] | Cell cycle distribution by DNA content (in words) (HeLa cells [2]; propidium iodide, GFP-gated) | Cell morphology (in words) (HeLa cells [2]; data not shown) | Cell proliferation (in words) (HeLa cells [2]; data not shown) | Inhibition of microtubule reassembly in cold-treated mitotic cells (in words) (HeLa cells [3])
B1 | little effect | no such effect | – | – | – | –
B2 | – | – | progressive accumulation in G2/M | change in morphology (to round cells) | stopped proliferating | significantly inhibited microtubule reassembly
